# Experimental data published in IntAct's records for PubMed 9153189.
# B1: Tumor necrosis factor receptor superfamily member 14 (Homo sapiens), Q92956 (parent)
# chain: MEPPGDWGPPPWRSTPKTDVLRLVLYLTFLGAPCYAPALPSCKEDEYPVGSECCPKCSPGYRVKEACGELTGTVCEPCPPGTYIAHLNGLSKCLQCQMCDPAMGLRASRNCSRTENAVCGCSPGHFCIVQDGDHCAACRAYATSSPGQRVQKGGTESQDTLCQNCPPGTFSPNGTLEECQHQTKCSWLVTKAGAGTSSSHWVWWFLSGSLVIVIVCSTVGLIICVKRRKPRGDVVKVIVSVQRKRQEAEGEATVIEALQAPPDVTTVAVEETIPSFTGRSPNH
# partner: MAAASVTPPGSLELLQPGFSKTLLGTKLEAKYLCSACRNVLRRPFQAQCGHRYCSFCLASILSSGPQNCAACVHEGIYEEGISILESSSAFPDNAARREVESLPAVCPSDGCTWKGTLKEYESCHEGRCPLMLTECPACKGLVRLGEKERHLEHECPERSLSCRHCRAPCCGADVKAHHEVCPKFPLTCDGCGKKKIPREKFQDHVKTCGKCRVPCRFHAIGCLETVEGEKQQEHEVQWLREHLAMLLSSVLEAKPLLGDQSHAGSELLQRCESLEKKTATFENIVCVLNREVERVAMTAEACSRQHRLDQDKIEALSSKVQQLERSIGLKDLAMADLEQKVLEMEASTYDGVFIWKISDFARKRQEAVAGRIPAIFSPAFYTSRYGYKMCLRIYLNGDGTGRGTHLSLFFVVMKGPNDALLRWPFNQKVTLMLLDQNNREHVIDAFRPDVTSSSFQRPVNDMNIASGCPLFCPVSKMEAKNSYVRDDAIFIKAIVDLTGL
# B2: Tumor necrosis factor receptor superfamily member 14 (Homo sapiens), Q92956 (parent)
# chain: B1 chain
# Variants of: B1
# Conditions: with traf2_human TRAF2, Q12933
row,Variant,effect of a mutation on the interaction
1,E271A,decreasing interaction

# Variants of: B2
# Conditions: with traf5_human TRAF5, O00463
# traf5_human TRAF5, O00463, sequence (O00463 whole entry): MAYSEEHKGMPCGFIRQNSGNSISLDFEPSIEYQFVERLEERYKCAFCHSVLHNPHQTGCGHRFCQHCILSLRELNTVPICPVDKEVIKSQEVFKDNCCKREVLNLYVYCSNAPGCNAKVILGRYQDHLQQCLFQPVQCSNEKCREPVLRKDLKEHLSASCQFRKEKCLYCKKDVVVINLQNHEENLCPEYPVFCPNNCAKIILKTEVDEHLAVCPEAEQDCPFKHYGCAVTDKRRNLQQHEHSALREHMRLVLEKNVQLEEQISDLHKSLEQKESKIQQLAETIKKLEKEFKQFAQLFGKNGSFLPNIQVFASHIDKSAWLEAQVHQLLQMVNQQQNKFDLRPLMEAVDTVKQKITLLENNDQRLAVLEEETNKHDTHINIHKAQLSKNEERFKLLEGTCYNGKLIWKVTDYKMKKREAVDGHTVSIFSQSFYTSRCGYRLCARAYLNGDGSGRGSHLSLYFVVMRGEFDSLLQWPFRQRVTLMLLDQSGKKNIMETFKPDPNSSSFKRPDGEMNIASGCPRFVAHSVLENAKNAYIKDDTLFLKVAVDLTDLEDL
row,Variant,effect of a mutation on the interaction
1,E271A,decreasing interaction
